# Measured values taken from patent US20210324359A1, “USE OF GRAM-NEGATIVE LYSIN-ANTIMICROBIAL PEPTIDE (AMP) POLYPEPTIDE CONSTRUCTS IN TREATING ENDOCARDITIS” (priority 2020, published 2021).
# B1: GN93: lysin-AMP construct: cationic peptide (SEQ ID NO: 120) and linker N-terminal to GN14 lysin (SEQ ID NO: 62) (protein)
# chain: MKFFKFFKFFKAGAGAGAGAGAGAGAGASNNELPWVAEARKYIGLREDTSKTSHNPKLLAMLDRMGEFSNESRAWWHDDETPWCGLFVGYCLGVAGRYVVREWYRARAWEAPQLTKLDRPAYGALVTFTRSGGGHVGFIVGKDARGNLMVLGGNQSNAVSIAPFAVSRVTGYFWPSFWRNKTAVKSVPFEERYSLPLLKSNGELSTNEA
# B2: GN333: lysin obtained from Delftia sp. (SEQ ID NO: 28) (protein, listed as Delftia sp.)
# chain: MALTEQDFQSAADDLGVDVASVKAVTKVESRGSGFLLSGVPKILFERHWMFKLLKRKLGRDPEINDVCNPKAGGYLGGQAEHERLDKAVKMDRDCALQSASWGLFQIMGFHWEALGYASVQAFVNAQYASEGSQLNTFVRFIKTNPAIHKALKSKDWAEFARRYNGPDYKKNNYDVKLAEAYQSFK
# B3: GN357: lysin-AMP construct: TAGGTAGG linker and RR12Whydro C-terminal to GN316 lysin (SEQ ID NO: 38) (protein)
# chain: MAILKIGSKGLEVKNLQTSLNKIGFNLVADGIFGKATDNAVRAVQAGAGLVVDGIAGPKTMYAIRNAGESHQDHLTEADLIDAARELSVDLASIKAVNQVESRGTGFTKSGKIKTLFERHIMYKKLNAKFGQAKANALAQLYPTLVNAKAGGYTGGDAELERLHGAIAIDKDCAYESASYGLFQIMGFNCVICGYDNAEEMFNDFLTGERAQLMAFVKFIKADANLWKALKDKNWAEFARRYNGPAYAQNQYDTKLAAAYKSFSTAGGTAGGRRLIRLWLRLLR
# B4: GN329: lysin, SEQ ID NO: 26 (protein)
# chain: MITDREYQQAAEMLGVDVPAIKAVTKVEAPVGGFQPTGEPTILYERHQMYRQLQAKGLPTEGHPPDLVNKVAGGYGKYSEQHAKLARAVKIDRDSALESCSWGMFQIMGYHWKLMGYPTLQAFVNAMYASEGAQMDAFCRFIKAQPTTHAALKAHDWAKFARLYNGPGYAKNKYDVKLEKAYAEASG
# modifications: Pseudomonas phage KPP10
# B5: GN431: lysin obtained from Dickeya phage phiD3 (SEQ ID NO: 64) (protein)
# chain: MAILKLGNRGTEVKALQDSLNKIGFTLVADGIFGKATENAVKTVQAGAGLVIDGIVGPKTSYAIRNAGEAHQDHLTEADLIEAANQLGVDLASVKAVNQVESRGTGFTKSGKIKTLFERHIMYKKLMAKFGQARANAMGQMYPTLVSPVAGGYTGGDAELDRLHAAINIDEDCAYESASYGLFQIMGFNCQVCGYANAKEMFNDFLTGERAHLMAFVKFIKADAKLWQALKDKNWAEFARRYNGPAYTKNQYDTKLAAAYNSFN
# modifications: Dickeya phage phiD3
# B6: GN83: AMP OBPgpLYS fused to the N-terminus of lysin GN4 (SEQ ID NO: 216) (protein)
# chain: MKNSEKNASIIMSIQRTLASLSLYGGRIDGLFGEKCRGAIILMLNKVYPNFSTNKLPSNTYEAESVFTFLQTALAGVGLYTITIDGKWGGTSQGAIDALVKSYRQITEAERAGSTLPLGLATVMSTSQRGIDLIKSFEGLRLSAYQDSVGVWTIGYGTTRGVTRYMTITVEQAERMLSNDIQRFEPELDRLAKVPLNQNQWDALMSFVYNLGAANLASSTLLKLLNKGDYQGAADQFPRWVNAGGKRLDGLVKRRAAERALFLEPLS
# modifications: OBG_GN4_2 (Lyz+C-term)
# B7: GN122: lysin obtained from Pseudomonas putida strain PA14H7 (SEQ ID NO: 218) (protein, listed as Pseudomonas putida)
# chain: MSIFSFVKEAGEKLIDLLTPGNANASEQLKEHVSKVGLGNPNIQTTVEGSKVTVTGEVASQEEKEKILLALGNIAGVESVDDQITVTGPLVAAARFVVVKKGDTLSAISLAVYGNANQYNKIFEANKPLLSHPDKIYPGQTLRIPE
# B8: GN76: lysin obtained from Acinetobacter phage vB_AbaP_CEB1 (SEQ ID NO: 203) (protein)
# chain: MILTKDGFGIIRNELFGGKLDQTQVDAINFIVEKATESGLSYPEAAYLLATIYHETGLPSGYRTMQPIKEAGSDNYLRSKKYYPYIGYGYVQLTWKENYGRIGKLIGIDLIKNPEKALEPLIAIQIAIKGMLNGWFTGVGFRRKRPVSKYNKQQYIAARNIINGKDKAELIAKYAIIFERALRSL
# modifications: Acinetobacter phage vB_AbaP_CEB1
# Tested on: P. aeruginosa
# Assay: MIC, modified CLSI broth microdilution in CAA medium without or with […] human serum (Table 4); on CAA/HuS MIC: CAA supplemented with 2.5% human serum
# Type: cell-based, Pseudomonas aeruginosa
# Conditions: CAA medium, no human serum
# Text: 2015. […] Clinical and Laboratory Standards Institute, Wayne, Pa.
row,Molecule,CAA MIC [µg/mL]
1,B1,128000
2,B2,8000
3,B3,16000
4,B4,4000
5,B5,8000

# Same assay, conditions: CAA supplemented with […] human serum
row,Molecule,CAA/HuS MIC [µg/mL]
1,B1,8000
2,B2,60
3,B3,250
4,B4,250
5,B5,62.5

# Tested on: carbepenam-resistant clinical isolate WC-453
# Assay: MIC in CAA without or with 25% human serum (Table 5)
# Type: cell-based, Pseudomonas aeruginosa
# Set-up: CAA MIC: unit not given here
# Conditions: not given
# Protocol: MIC values were determined using a modification of the standard broth microdilution reference method defined by the Clinical and Laboratory Standards Institute (CLSI), CLSI. […] Methods for Dilution Antimicrobial Susceptibility Tests for Bacteria That Grow Aerobically; Approved Standard-10th Edition. Clinical and Laboratory Standards Institute, Wayne, Pa.
row,Molecule,activity in CAA supplemented with human serum (25%)
1,B1,active
2,B6,repressed
3,B7,active
4,B8,active

# Same assay, conditions: CAA
row,Molecule,CAA MIC
1,B1,128
2,B6,>128
3,B7,2
4,B8,64

# Same assay, conditions: CAA supplemented with 25% human serum
row,Molecule,CAA/HuS MIC
1,B1,8
2,B6,>128
3,B7,2
4,B8,8

# Tested on: Pseudomonas aeruginosa strain CFS-1292 (meropenem resistant)
# Assay: not given
# Conditions: strain CFS-1292; no added cations
# Protocol: The activity of selected GN lysins and constructs in the presence of divalent cations was evaluated, and the impact of divalent cations at physiological concentrations was examined in the MIC assay format.
row,Molecule,MIC in 25% CAA [µg/mL]
1,B2,8
2,B3,4
3,B4,4
4,B5,2

# Tested on: P. aeruginosa strain WC-453
# Assay: Time-kill assay in HEPES or CAA with 25% human serum (Tables 7, 8)
# Type: cell-based, Pseudomonas aeruginosa
# Conditions: 10 μg/mL; enumerated lysins in CAA/HuS; general statement for HEPES and CAA/HuS
# Protocol: Exponential phase bacteria were then pelleted and resuspended in 1/5 culture volume of 25 mM HEPES, pH 7.4 before a final adjustment to an optical density corresponding to a McFarland value of 0.5. […] All treatments were incubated at 37° C. with aeration. At time points before the addition of lysin (or buffer control) and at 1 hour and 3 hours intervals thereafter, culture samples were removed for quantitative plating on CAA agar plates.
row,Molecule,"bactericidal activity (CFU decrease of 3-Log10, 3 hours after the addition of lysin)"
1,B1,bactericidal activity
2,B6,bactericidal activity
3,B2,bactericidal activity
4,B3,bactericidal activity
5,B4,bactericidal activity
6,B8,bactericidal activity
7,B5,bactericidal activity

# Same assay, conditions: 25 mM HEPES pH 7.4; lysin 10 μg/ml; 1 hr; WC-453
row,Molecule,"HEPES (Log10 CFU/mL), 1 hr [Log10 CFU/mL]"
1,B1,6.0
2,B6,<3.7
3,B7,7.7
4,B8,<3.7

# Same assay, conditions: 25 mM HEPES pH 7.4; lysin 10 μg/ml; 3 hr; WC-453
row,Molecule,"HEPES (Log10 CFU/mL), 3 hr [Log10 CFU/mL]"
1,B1,<3.7
2,B6,<3.7
3,B7,5.4
4,B8,<3.7

# Same assay, conditions: CAA + 25% human serum; lysin 10 μg/ml; 1 hr; WC-453
row,Molecule,"CAA/HuS (Log10 CFU/mL), 1 hr [Log10 CFU/mL]"
1,B1,6.6
2,B6,5.7
3,B2,4.9
4,B3,5.0
5,B4,4.4
6,B7,6.7
7,B8,5.7
8,B5,5.8

# Same assay, conditions: CAA + 25% human serum; lysin 10 μg/ml; 3 hr; WC-453
row,Molecule,"CAA/HuS (Log10 CFU/mL), 3 hr [Log10 CFU/mL]"
1,B1,<3.7
2,B6,<3.7
3,B2,<3.7
4,B3,<3.7
5,B4,<3.7
6,B7,6.7
7,B8,<3.7
8,B5,<3.7

# Tested on: biofilms formed by P. aeruginosa strain ATCC 17646
# Assay: not given
# Conditions: strain ATCC 17646 biofilm
# Protocol: Biofilms are then washed and treated with e.g., a 2-fold dilution series of the lysin in TSBg at e.g., 37° C. for 24 hours. After treatment, wells are washed, air-dried at e.g., 37° C. and stained with e.g., 0.05% crystal violet for 10 minutes.
row,Molecule,MBEC [µg/mL]
1,B1,0.125
2,B6,1
3,B2,1
4,B3,0.5
5,B4,0.5
6,B7,1
7,B8,0.125
8,B5,1
